Results taken from the supplement of paper PMC11136658.

Test system: peptide library, one residue held at a place counted from the Y acceptor
Assay: relative phosphorylation of the sub-library (ratio to the mean residue at this position); higher = residue favoured
Method in brief: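 Every value reflects phosphorylation relative to the mean randomized residue. The sum of the 18 randomized residues, or 16 in the Ser/Thr-free library, served to normalize intensities at each position, which were then multiplied by that number. Intensities came from phosphorimaging with ImageQuant of biotinylated Tyr-centred peptides captured on streptavidin membranes after 90 min with purified recombinant kinases and 50 μM ATP plus γ-32P-ATP.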

Sequence of KDR, construct: aa789-end, human (P35968 789-1356, looked up): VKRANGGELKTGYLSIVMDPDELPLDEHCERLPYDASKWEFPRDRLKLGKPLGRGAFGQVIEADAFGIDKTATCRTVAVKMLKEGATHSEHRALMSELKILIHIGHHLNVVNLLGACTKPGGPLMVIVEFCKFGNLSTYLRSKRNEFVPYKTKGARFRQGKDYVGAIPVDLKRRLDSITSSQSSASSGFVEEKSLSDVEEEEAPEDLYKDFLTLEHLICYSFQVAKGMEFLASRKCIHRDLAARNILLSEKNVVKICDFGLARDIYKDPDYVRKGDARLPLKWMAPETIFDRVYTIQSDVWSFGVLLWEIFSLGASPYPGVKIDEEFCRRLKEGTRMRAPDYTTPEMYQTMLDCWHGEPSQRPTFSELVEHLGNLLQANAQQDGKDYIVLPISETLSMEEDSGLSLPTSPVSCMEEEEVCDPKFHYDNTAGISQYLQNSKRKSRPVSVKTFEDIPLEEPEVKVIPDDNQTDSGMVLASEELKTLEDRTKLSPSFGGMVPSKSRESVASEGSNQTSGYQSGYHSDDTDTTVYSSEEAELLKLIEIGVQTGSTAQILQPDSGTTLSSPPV
Sequence of JAK3, construct: aa795-end, human (P52333 795-1124, looked up): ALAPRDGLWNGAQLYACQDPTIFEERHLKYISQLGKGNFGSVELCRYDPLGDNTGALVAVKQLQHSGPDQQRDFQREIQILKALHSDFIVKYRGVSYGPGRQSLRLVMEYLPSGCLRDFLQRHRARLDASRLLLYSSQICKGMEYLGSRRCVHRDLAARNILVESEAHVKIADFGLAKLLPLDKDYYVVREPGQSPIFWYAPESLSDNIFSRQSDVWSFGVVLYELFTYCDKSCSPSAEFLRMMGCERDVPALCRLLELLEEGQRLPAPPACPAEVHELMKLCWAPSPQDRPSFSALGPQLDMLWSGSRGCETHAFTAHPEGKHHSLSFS
Sequence of ITK, construct: aa352-end, human (Q08881 352-620, looked up): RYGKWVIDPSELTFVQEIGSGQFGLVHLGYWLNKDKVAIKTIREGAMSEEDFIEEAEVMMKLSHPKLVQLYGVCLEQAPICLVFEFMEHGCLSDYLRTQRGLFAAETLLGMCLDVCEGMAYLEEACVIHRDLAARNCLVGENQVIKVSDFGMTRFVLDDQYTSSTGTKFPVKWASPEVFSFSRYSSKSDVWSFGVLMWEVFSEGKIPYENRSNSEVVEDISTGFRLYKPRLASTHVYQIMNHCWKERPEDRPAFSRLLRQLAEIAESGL

ITK, construct: aa352-end, human (from UniProt Q08881)
relative phosphorylation
Conditions	at +1	at +2	at +3	at +4	at +5	at -1	at -2	at -3	at -4	at -5
A fixed	1.81	1.06	0.772	0.857	1.11	0.551	1.01	0.947	1.03	0.997
D fixed	0.732	0.669	0.309	0.622	0.886	0.754	1.41	1.36	1.33	1.21
E fixed	1.51	1.13	0.274	0.821	0.792	0.709	1.51	1.52	1.38	1.08
F fixed	0.572	1.07	1.85	0.763	0.705	1.81	0.627	0.793	0.672	0.935
G fixed	1.08	0.639	0.788	1.26	1.1	0.384	1.43	1.21	1.17	1.13
H fixed	0.606	0.801	2.11	0.96	0.926	0.991	0.812	1.03	1.01	1.13
I fixed	1.51	1.12	0.913	0.996	0.332	2.5	0.548	0.511	0.759	0.718
K fixed	0.337	0.697	0.722	1.34	1.39	0.291	0.703	0.694	0.953	1.06
L fixed	0.606	0.908	0.832	0.771	0.72	2.16	0.969	0.666	0.743	0.757
M fixed	1.17	0.976	1.06	1.04	1.24	1.22	0.645	0.752	0.816	0.896
N fixed	0.361	1.06	0.757	0.846	1.06	0.585	1.33	1.39	1.15	1.24
P fixed	0.172	0.791	0.868	1.08	1.49	0.48	1.43	1.27	1.15	1.07
Q fixed	1.03	0.901	0.885	1.19	1.15	0.648	1.24	1.16	1.39	1.24
R fixed	0.432	0.987	1.41	1.32	1.55	0.308	0.64	0.774	1.05	1.14
S fixed	1.4	1.22	0.997	1.07	1.14	0.489	1.28	1.31	1.05	1.01
T fixed	1.36	1.45	0.767	1.12	1.01	1.19	1.05	1.1	0.807	0.902
V fixed	2.08	1.24	1.04	1.16	0.772	1.57	0.764	0.752	0.84	0.797
W fixed	1.23	1.27	1.65	0.785	0.634	1.36	0.605	0.759	0.706	0.692
pThr fixed	2.18	2.7	0.354	0.462	0.524	1.68	1.08	0.871	1.02	0.887
pTyr fixed	1.11	3.73	0.518	0.754	0.65	1.48	1.02	1.2	1.23	2.07

JAK3, construct: aa795-end, human (from UniProt P52333)
relative phosphorylation
Conditions	at +1	at +2	at +3	at +4	at +5	at -1	at -2	at -3	at -4	at -5
A fixed	0.882	0.772	0.718	0.933	1.08	0.848	0.973	1.02	1.07	1.1
D fixed	0.438	0.975	0.429	0.902	0.84	3	1.02	1.3	1.08	1.09
E fixed	0.497	0.834	0.342	0.687	0.843	2.01	1.05	1.18	1.22	0.94
F fixed	2.22	1.17	1.18	1.07	0.874	0.763	0.839	0.962	1.05	1.02
G fixed	0.36	0.532	0.643	1.08	1.1	0.699	1.24	1.07	1.07	1.2
H fixed	1.44	0.984	1.19	1.01	0.967	0.968	1.03	1.11	1.04	1.12
I fixed	1.17	0.644	1.54	0.676	0.66	0.817	0.597	0.632	0.682	0.736
K fixed	0.436	0.82	0.794	1.29	1.24	0.493	0.982	0.857	0.91	1.12
L fixed	0.877	0.998	1.71	0.839	0.771	0.69	0.862	0.707	0.726	0.793
M fixed	1.06	1.21	1.5	0.883	0.852	0.593	0.86	0.72	0.847	0.828
N fixed	0.54	1.17	0.7	0.965	1.22	1.31	1.31	1.41	1.04	0.946
P fixed	0.455	0.945	0.773	1.02	1.22	0.759	1.07	1.07	1.11	1.03
Q fixed	1.04	1.02	0.883	1.22	1.13	0.874	1.31	1.15	1.11	0.971
R fixed	0.665	0.876	1.03	1.3	1.46	0.55	1.1	1.01	1.15	1.14
S fixed	0.697	0.848	0.916	1.11	1.4	0.831	1.22	1.21	1.07	1.05
T fixed	0.73	0.902	1.15	0.972	0.959	0.935	0.989	1.07	0.839	0.973
V fixed	1.65	0.807	1.2	0.819	0.716	0.842	0.671	0.72	0.7	0.77
W fixed	2.27	2.25	1.37	1.31	1.03	0.791	1.09	1.1	1.19	1.19
pThr fixed	0.626	1.2	0.391	0.528	0.682	2.23	1	1.16	1.01	0.871
pTyr fixed	1.04	0.925	0.369	0.583	0.725	2.37	1.05	1.32	1.01	0.825

KDR, construct: aa789-end, human (from UniProt P35968)
relative phosphorylation
Conditions	at +1	at +2	at +3	at +4	at +5	at -1	at -2	at -3	at -4	at -5
A fixed	0.852	0.685	0.543	0.829	0.944	0.816	0.954	0.915	1.04	1
D fixed	0.301	0.599	0.314	0.665	0.745	2.25	1.1	1.21	1.04	0.987
E fixed	0.416	0.621	0.246	0.608	0.696	1.46	1.2	1.29	1.26	0.973
F fixed	1.6	1.34	2.2	1.1	1.04	0.846	0.617	0.819	0.818	0.816
G fixed	0.612	0.417	0.465	1.01	1.13	0.631	1.36	1.17	1.33	1.21
H fixed	1.37	0.86	0.523	0.95	0.978	1.37	1.12	1.02	0.975	1.03
I fixed	1.22	0.919	2.05	0.733	0.86	1.05	0.546	0.573	0.741	0.756
K fixed	0.944	1.32	0.469	1.52	1.17	0.726	1.21	1.18	1.2	1.49
L fixed	1.06	1.39	2.56	0.906	0.907	0.886	0.723	0.745	0.788	0.771
M fixed	1.17	1.06	2.1	0.996	1.04	0.654	0.645	0.699	0.826	0.857
N fixed	0.634	1.12	0.465	0.862	1.05	1.36	1.32	1.23	0.886	1.08
P fixed	0.645	0.63	0.787	1.29	1.26	0.842	1.08	1.15	1.28	1.14
Q fixed	1.27	1.01	0.561	1.02	0.916	1.07	1.19	1.09	1.12	1.01
R fixed	1.14	1.77	0.7	1.6	1.39	0.841	1.55	1.29	1.36	1.44
S fixed	0.712	0.921	0.599	0.982	1.09	0.671	1.14	1.05	0.856	0.973
T fixed	0.939	0.924	0.675	0.989	1.18	0.86	0.938	1.06	0.743	0.947
V fixed	1.79	1.02	1.65	0.841	0.733	0.962	0.637	0.633	0.756	0.768
W fixed	1.31	1.39	1.09	1.09	0.872	0.689	0.658	0.883	0.991	0.761
pThr fixed	0.636	1.09	0.307	0.54	0.602	1.64	1.14	1.41	1.1	1.25
pTyr fixed	2.12	1.83	0.405	0.526	0.731	2.89	1.99	2.27	2.12	1.45
